This data set is described as follows: label from the status in PepcDB records.
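Also: failed if final PepcDB status was selected cloned or expressed and not failed if soluble or beyond.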

Turning to “MKMIETSLASASAALRDRVDEILAAATREDGCAPLSESFLNGLRRADDGHVHSCVMDSHDQVVGVAARDGDSAEVVVDPAFRRQGYGSFLIRHVVSQGVKNVWAHGDGAGAKAVAKALQLEQTRQLLVMAVEGDRLVESAQLQVPSGFRVLALNEAYESIPDIEQQWLRVNNEAFEWHPEQGGWDSARLAQARDTQWFRESDVLFLIDTAKRTVAGFHWTKRHGDLAEGADGEVYVVGLGSAYRRRGLGDLLIRMGLHHLEYEHARRVILYVEGDNESARRAYDALGFHVVESHVTYSPQSSS”, the protein production entry is given as “failed”. In the case of “MKMIQFWFDFASTYSYPAAMQIRQLKDEYRFSLHPFLLGGIFQKQGLNDSPFNAYPVKGQYMWRDLERICQKLDLKFHRPVLFPQNGLLAARIACQYASAPWIFDFICSVYQANFVQNLDIGQPETISQILQNMQLDCNDIIMTSTTDTAKQTLKQNGMIAESLHIFGAPSFVVENELFWGQDRLQDAIDWSQR”, the protein production result was “failed”. The same measure for “MKMRKLVKDFGDDYTLIQDSQEVKAILEYIGSEEEPHALFVKVGDGDYEEVWGIDSFVPYNFLEAYRLK”: “not failed”. As to “MKMTVVGFWGGFPEAGEATSGYLFEHDGFRLLVDCGSGVLAQLQKYITPSDIDAVVLSHYHHDHVADIGVLQYARLITSATKGQLPELPIYGHTFDENGFHSLTHEPHTKGIPYNPEETLQIGPFSISFLKTVHPVTCFAMRITAGNDIVVYSADSSYIPEFIPFTKDADLFICECNMYAHQEAAKAGHMNSTEVASIAKDANVKELLLTHLPHTGNPADLVTEAKQIFSGHITLAHSGYVWNS”, the protein production result is listed as “not failed”. As to “MKNFLETIEDMILIINREGRLLYANTAVPKKLGYPHEELMSMHILTITSAGKMAEGEKILAELFAGKKESLPLSLEKKEGTSIPAKARIWQGKWHNEPCLFAIIKDLSKEERASSPPFLEPDEIHTGISGAAWCEKPDFASDISCELKDEEPSKPRVLIVDDQLFNLKLLESALKEDYIVMTADNGIEALELATGKSQPDIILLDIIMPVMDGYEVCIRLREMPETRDIPVIFLSALKNEKNEEYALQLGVVDYITKPFSLPIIKGRLRNHVEQKKYRDRQKENSYIDELTQIANRRKFNETVTIEWNRARRNGNSLSVLMIDVDCFKKYNDFYGHLEGDKCLYKIAQTLKSNVKRSSDLVARWGGEEFACVLTDTDRIGAMLVGERLRRAVVKLNIPSEISDVDRVVTASIGVATALPAVDNSLEELLHKADMALYKAKKTGRNCVCTP”, the protein production result is on record as “failed”.

For the sequence “MKNHLITVLVCCLFFIGCKDDKANSNQYDPSQPVVFTDFSPKEGGMRTRLYIEGSNFGNDPTKIHITIGGEKTKTIGADGKKIYCMVPSKAFDGIINVRVDGPDGKPIAEHTFEEEFKYTPATIVGTLLRKVDEDNNSAFQEGSFDEGASIPSNDCMVFDPKYKDGDNRLLFSSNHSDGLHLIDLTERTVKRLFPRTGYSTMYSFTFSADGDTLLFTDDHGQDNTTRANIYYSLRRENFRRIRPYNYGRTAYSLVYMDDGTIFYTTWWEGKVYKMIRNGAIPNIDENAEVAFSLSQISAVGGSHTILFRHPSNKFMYMLSDNFGAVFRADYDPVAKTFGNPSIIAGNMNDKSFKEGTGGSARFNKPQFGVFVKNEKYGEGIGPDNDQYDFYFCDRENHCIWKLDPHGVASLAAGRSNENADGKIWGYVDGNPLHEARFNQPAGLAYDPDTDMFYIGDIDNKGIRYMTTE”, the protein production entry is “failed”. For the sequence “MKNIIPQALLTMPILSTGLQAQEKQPTPNLVFIMADQYRGDAIGCIGKEPVKTPHLDKLASEGINFTNAISSYPVSSPARGMLMTGMYPIGSKVTGNCNSETAPYGVELSQNARCWSDVLKDQGYNMGYIGKWHLDAPYKPYVDTYNNRGKVAWNEWCPPERRHGFDHWIAYGTYDYHLKPMYWNTTAPRDSFYYVNQWGPEYEASKAIEYINGQKDQKQPFALVVSMNPPHTGYELVPDRYKEIYKDLDVEALCKGRPDIPAKGTEMGDYFRNNIRNYYACITGVDENVGRIIEALKQNNLFDNTIVVFTSDHGICMGAHENAGKDIFYEESMRIPMILSWPDQIKPRKSDPLMIAFADLYPTLLSMMGFSKEIPETVQTFDLSNEVLTGKNKKDLVQPYYFVKFDNHATGYRGLRTDRYTYAVHATDGKIDNVILFDRTNDPHEMNNIASQQLKLTHTFNRQLKTWLEKTNDPFAQYIKLKLEHHHHHH”, the protein production entry is reported as “not failed”.

For “MKNIVVIGAGNIGSAIAWMLAATGDYRITVADRSADQLANVPAHERVDTEIVDIADRPALEALLKGKFAVLSAAPFHLTAGIAEAAVAVGTHYLDLTEDVESTRKVKALAETAESALIPQCGLAPGFISIVAADLAARFDKLDSVRMRVGALPQYPSNALNYNLTWSTDGLINEYIEPCEAIVEGRLTAVPALEEREEFSLDGVTYEAFNTSGGLGTLCATLEGKVRTMNYRTIRYPGHVAIMKALLNDLNLRNRRDVLKDLFENALPGTMQDVVIVFVTVCGTRNGRFLQETYANKVYAGPVSGRMMSAIQITTAAGICTVLDLLAEGSLPQKGFVRQEEVALPKFLENRFGRYYGAHEPLARVG”, the protein production entry is “failed”. The same measure for “MKNKIILGCLAAAACEILFGLSFIFTKSITAQASGLALISWRFVTAFFFVNLYLLTKRQKVVINGRNIKPLIRIAILNPIIYFICETIGIRMTTASESGAFLACIPVVALIMSSLILKEWPSRWQVVGVATTLIGIIIAVFAAGGSTNFSLVGYFILGLAVVSYALYCVDVEKASQFTSFEITYFMLASGCLTFGLFALSHSFLAGNLKELLTLPWSNPKFAITILYQGLGCSVIGYILSNFAIATIGVNRTASFIGISTIISILAAVVFLGEPFSQLQILAGILVVLGVYVANKN”: “failed”; for “MKNKKNNYDLMYFIPLVFLIYPIGGILYYHYPFWTLFFTLAFVGAYLYSVIIRGESKYHMIAWSTMLTYIFYMTIFINSGFIWYIYFLSNLLVYRFRDKLKSFRFISFACTLATVVFLCFFKASDFGDRIMFLIVPIFCIGYMWIAIENRNSEEQREKIAEQNQYINILSAENERNRIGRDLHDSLGHTFAMMTLKTELALKLLEKRNYDKVQKELSELNHISHQSMSEVRQIVSNLKYRTVVEEIDELYRLFQLSNIKLTVVNKLETSQLSPVTQSTITMILKELSNNIVKHAEADSVELSLVRQGATINIEMIDNGCGFTNLDGDELHSIQERLTIVEGTLTILSRSKPTHIQVVLKEV”: “failed”; for “MKNLHRCKKIFLRVFSRSARRQREPLQDAVLDLHQGAFGGFAPCSAPVQLKRKRPMTKPETTAPTAKAVLPIGLLIAVLAMVAVLLLPLPADLPVAGHRMLAILAFAVVVWISEAVSYEASAIMITALMAFLIGTAPTLQDPSQLYGSSAAIGLALTGFSNSALALVAGALFIAAAMTHTGLDRRIALVTLTRVGTSTRRILIGAIAVTILLSLLVPSATARSACVVPIMMGVIAAFGVDKRSNIAAGLMIVVAQGTSIWNVGIQTAAAQNLLTVGFMDKMLGQRVAWLDWLIAGAPWAVIMSLVLLWLVLKLLPPETDSIPGGKEAVAQSLADIGPMTGPQKRLLTVSVLLLLAWSTEGKLHPFDTTTTTYAGLVILLLPRIGIMTWKDVQSRIPWGTVIVFGVGISLGSALLSTQAGQWLGSQVVAHTGLDQVGPLAVFAILAAFLILIHLGFASATALTSALLPILIAVLQTLPGEFSRLGMTMLLGFVVSYGFILPINAPQNMVCLGTETFNARQFAKVGLLVTLIGYLLMLVFAMTWWKWLGWM”: “failed”. As for “MKNMVIVLTGVTVVAGALLGYVNELTKEPIAQANAKALSDAIAIVVPGFDNNPAEAPETIELEGVTYKIYKATKGGEFIGAAVESSANGFGGALNVLVGFDKEGNIIDYSLLSHAETPGLGSKAADWFKKGGKGDITGMNPGQKALVVNKDGGQIDAITASTITTRAFLKAVNNAYAAYSGQNVDGSSGATQQVSETAADDPKAAKAQCEGTQDCCGQACDSAACKAACGGKCDPANCDKADCKKAECPKQDCKNKK”, the protein production result is recorded as “failed”. The same measure for “MKNNKKGLWGIIVAVGLFLLSKLKWVFAIFKLAKFSTVFSMFLSLGAYAVLYGWKFGVALIYLLFVHEMGHLWAAKRKGIPTSPAIFIPFMGALIGMKEMPKNAKDEAYIAYMGPLFGLLSFLPAIPLYIMTKEPFWALVILLGSMINFFNLIPVSPLDGGRIISVVSTKIWGAGLILLLGYSIYFKSILGGFIVIIGCMELYRVIKRDEPIKELGHKIYGMKEYVTRLEEELKETGAVHRTIYVMHHEMNALRQREREKELQIGELKKMEVLEYLLPKFEPLDYVPYEDEKDEYTIHIREAFEASERKLNEWKTEKEQQENYYKVDAKTKWTVFACYIGLMVILGYTAYEGYIVLQEHLPTRNV”: “failed”.

Source of the values: a protein production outcome set (Wang et al. 2014).
